tested on: TO-3-N3-2 (biotin conjugate); assay: pull-down binding Z-score (relative to library population); higher = stronger binding; conditions: RNA library: Library-2
Summary of the method: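 Streptavidin beads with 100 pmol of biotin-conjugated small molecule were incubated for 60 min at 25 °C with 1 μg of heat-folded Cy5- or Cy3-end-labelled RNA library in phosphate/NaCl/KCl buffer. Bound RNA was eluted in hot SDS after three washes and hybridised to a DNA barcode microarray at 55.5 °C for 20 h. Each binding score is a library-referenced Z-score, computed after beads-only subtraction and a trimmed mean of barcoded replicate probes.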

Going from “ACCACUGUGAAGACAGUAAAAUGUACAGUGGU [hsa-mir-597]” to “ACCAUAGUCAUAAGUUAGGAGAUGUUAGAGCUGUGAGU [hsa-mir-4286]”, the “pull-down binding Z-score” value rises from -0.0901 to 0.296.

First: ACCAUAUCUAAGCUAAUGUGGUGGU [hsa-mir-876]
Second: ACCCAGGACUCUUUCAUGACCA [hsa-mir-665]
The “pull-down binding Z-score” value of the first is lower: 0.00992 for the first, 0.144 for the second.

First: ACCCGGGUGGUGGAGGUUGCAGUGAGCCAAGAUUGCGCCACUGCACUCCAGCCUGGGC [hsa-mir-1273a]
Second: ACCCUGCAGCCCCAGCUGGAGGAUGAGGAGAUGCUGGGCUUGGGU [hsa-mir-4313]
The “pull-down binding Z-score” value of the first is lower: 0.442 for the first, 1.45 for the second.

Compared with “ACCUAACACACUGCCUUUUAUGUGGUAGGU [hsa-mir-5094]”, “ACCUCCUGGCUUUUCCUCUGCAGCAUGGCUCGGACCUAGUGCAAUGUUUAAGCU [hsa-mir-6826]” is higher in “pull-down binding Z-score” value: -0.66 for the first, 0.506 for the second.

First: ACCUGUGUGUGCCCAAGUGUUUCUAGCAAACACAGGG [hsa-mir-3649]
Second: ACCUUCCAAGGCUCAGAAGGU [hsa-mir-4650-1_4650-2]
The “pull-down binding Z-score” value of the first is higher: 0.425 for the first, -0.432 for the second.

First: ACGAGAGUGAGUAGCAGGUCUC [hsa-mir-128-2]
Second: ACGAUAUAGGUAUGUAUGUAUGUAUGUAUAAAAGCAGGGCAGUAUAUAUAUCGU [hsa-mir-4536-2]
The “pull-down binding Z-score” value of the first is lower: 0.361 for the first, 0.723 for the second.

Compared with “ACGAUAUAUAUACUGCCCUGCUUUUAUACAUACAUACAUACAUACCUAUAUCGU [hsa-mir-4536-1]”, ACGCGCUGUGACACUUCAAACUCGU [hsa-mir-126] is lower in “pull-down binding Z-score” value: -0.00614 for the first, -0.171 for the second.

Compared with “ACGUCCAGUGGUGCAGAGGUAAUGGACGU [hsa-mir-1306]”, ACGUCUGGCCGCGUGCGCAUGU [hsa-mir-3175] is lower in “pull-down binding Z-score” value: 0.227 for the first, -0.244 for the second.

First: ACGUGACCUCCUGGGCCUG [hsa-mir-6770-1_6770-3_6770-2]
Second: ACUAAUUUUUCCACUAGUUAGU [hsa-mir-4424]
The “pull-down binding Z-score” value of the first is higher: 0.131 for the first, -0.199 for the second.

Compared with “ACUACUAUAGGCCGCUGGGAAGCAGU [hsa-mir-130b]”, “ACUACUGUACUUUACAGCUAGCAGU [hsa-mir-301a]” is lower in “pull-down binding Z-score” value: 0.542 for the first, -0.244 for the second.

First: ACUACUGUGCUCUGAGAAGCAGU [hsa-mir-301b]
Second: ACUAGAUUUGAAUCCAGACCUUUAGU [hsa-mir-5584]
The “pull-down binding Z-score” value of the first is lower: -0.255 for the first, 0.3 for the second.

First: ACUCCCAGAACUCAUUAAGUUGGUAGU [hsa-mir-1278]
Second: ACUCCUAGGUCACGGAAGU [hsa-mir-6838]
The “pull-down binding Z-score” value of the first is higher: -0.184 for the first, -0.33 for the second.

First: ACUGAACCAGCUUCAAACAAGUUCACU [hsa-mir-653]
Second: ACUUAAGCACCAGGUAAAAUCUGGUGCUUAAGU [hsa-mir-4720]
The “pull-down binding Z-score” value of the first is higher: 0.0338 for the first, -0.698 for the second.

Going from ACUUCAGAUGCUUCAUGACA [hsa-mir-6865] to ACUUUCACCAGAGAGCAGAAAGU [hsa-mir-371b], the “pull-down binding Z-score” value falls from -0.117 to -0.564.

Compared with “ACUUUCUGGUGCCAGAAUGAAAGU [hsa-mir-512-2_512-1]”, “ACUUUCUGUUUGAAAGAAAACAAAGU [hsa-mir-519e]” is lower in “pull-down binding Z-score” value: -0.218 for the first, -0.409 for the second.

Going from “ACUUUUUUUUUUUUUUUUUUUAAUGUUAAAAGU [hsa-mir-5588]” to “AGAAAAUUUUUCUCCAAAGUUUUCU [hsa-mir-4659b]”, the “pull-down binding Z-score” value falls from 0.823 to -0.443.

Going from “AGAAACCUACUUAUUACAUAGUUUACAUAAGAAGCGUGAU [hsa-mir-1322]” to “AGAAAGUGAAACACUAUUUUAGGUUUU [hsa-mir-4458]”, the “pull-down binding Z-score” value rises from -0.0921 to -0.00981.

First: AGAAAUCAAGCUAUUUGCUAAAAGUUCU [hsa-mir-6844]
Second: AGAACAGAUAUAUCCACAGUACACUUGGCUGUUCU [hsa-mir-4753]
The “pull-down binding Z-score” value of the first is higher: 0.246 for the first, -0.354 for the second.

Going from AGAACAUUCGUUCACUUUCCU [hsa-mir-6747] to AGAACUUUGGUUUU [hsa-mir-4434], the “pull-down binding Z-score” value falls from -0.29 to -0.611.

First: AGAAGAACU [hsa-mir-378j]
Second: AGAAGACCU [hsa-mir-378g]
The “pull-down binding Z-score” value of the first is lower: -0.0957 for the first, 0.241 for the second.

First: AGAAGCCCAGGUUCUGAAUCCCCU [hsa-mir-6734]
Second: AGAAGCUAAAGUGUAGAUCAAACGCAUAAUGGCUGA [hsa-mir-4500]
The “pull-down binding Z-score” value of the first is higher: 0.23 for the first, 0.195 for the second.

First: AGAAGGCCUAUGGUGAUUUGCAUUCUU [hsa-mir-6875]
Second: AGAAUUACUUAUCUGAGCCAAAGUAAUUCA [hsa-mir-1297]
The “pull-down binding Z-score” value of the first is higher: 0.226 for the first, 0.225 for the second.

In the case of “AGACAGCCUGAGUUGGAGGCUCAUCUUCACUUCUUGCUGUGU [hsa-mir-3168]”, the “pull-down binding Z-score” value is reported as -0.221.
